B1: cyclopeptide-3 c-(-FEaNE-) (peptide)
peptide: FEANE
HELM: PEPTIDE1{F.E.[dA].N.E}$PEPTIDE1,PEPTIDE1,1:R1-5:R2$$$V2.0
SMILES: C[C@H]1NC(=O)[C@H](CCC(=O)O)NC(=O)[C@H](Cc2ccccc2)NC(=O)[C@H](CCC(=O)O)NC(=O)[C@H](CC(N)=O)NC1=O
B2: cyclopeptide-1 c-(-fEANE-) (peptide)
peptide: FEANE
HELM: PEPTIDE1{[dF].E.A.N.E}$PEPTIDE1,PEPTIDE1,1:R1-5:R2$$$V2.0
SMILES: C[C@@H]1NC(=O)[C@H](CCC(=O)O)NC(=O)[C@@H](Cc2ccccc2)NC(=O)[C@H](CCC(=O)O)NC(=O)[C@H](CC(N)=O)NC1=O
B3: cyclopeptide-4 c-(-FEAnE-) (peptide)
peptide: FEANE
HELM: PEPTIDE1{F.E.A.[dN].E}$PEPTIDE1,PEPTIDE1,1:R1-5:R2$$$V2.0
SMILES: C[C@@H]1NC(=O)[C@H](CCC(=O)O)NC(=O)[C@H](Cc2ccccc2)NC(=O)[C@H](CCC(=O)O)NC(=O)[C@@H](CC(N)=O)NC1=O
B4: cyclopeptide-5 c-(-FEANe-) (peptide)
peptide: FEANE
HELM: PEPTIDE1{F.E.A.N.[dE]}$PEPTIDE1,PEPTIDE1,1:R1-5:R2$$$V2.0
SMILES: C[C@@H]1NC(=O)[C@H](CCC(=O)O)NC(=O)[C@H](Cc2ccccc2)NC(=O)[C@@H](CCC(=O)O)NC(=O)[C@H](CC(N)=O)NC1=O
B5: cyclopeptide-2 c-(-FeANE-) (peptide)
peptide: FEANE
HELM: PEPTIDE1{F.[dE].A.N.E}$PEPTIDE1,PEPTIDE1,1:R1-5:R2$$$V2.0
SMILES: C[C@@H]1NC(=O)[C@@H](CCC(=O)O)NC(=O)[C@H](Cc2ccccc2)NC(=O)[C@H](CCC(=O)O)NC(=O)[C@H](CC(N)=O)NC1=O
B6: cyclopeptide-7 c-(-RGDlA-) (peptide)
peptide: RGDLA
HELM: PEPTIDE1{R.G.D.[dL].A}$PEPTIDE1,PEPTIDE1,1:R1-5:R2$$$V2.0
SMILES: CC(C)C[C@H]1NC(=O)[C@H](CC(=O)O)NC(=O)CNC(=O)[C@H](CCCNC(=N)N)NC(=O)[C@H](C)NC1=O

Each binder was assayed against integrins on WM-115 cells (mainly integrin α5β1, αVβ3, and αVβ5) (assay: competitive cell adhesion assay).

First: B1
Second: B2
The IC50 of the first is higher: greater than 1000 µM for the first, 43 to 340 µM for the second. The second is the more potent here.

Compared with B3, ANFEANELFFISEDV [linear peptide 6 (…)] is lower in IC50: greater than 1000 µM for the first, 9 µM for the second. The second is the more potent here.

Compared with B4, B5 is lower in IC50: greater than 1000 µM for the first, 30 to 530 µM for the second. The second is the more potent here.

Biological target: integrins on WM-115 cells (mainly integrin α5β1, αVβ3, and αVβ5)
Test: competitive cell adhesion assay
Remark: another data set of the same source

B1 and B2 cannot be ordered by IC50: greater than 1000 µM for the first, greater than 1000 µM for the second.

First: B3
Second: ANFEANELFFISEDV [linear peptide 6 (…)]
The IC50 of the first is higher: greater than 1000 µM for the first, 239 µM for the second.

Compared with B4, B5 is lower in IC50: greater than 1000 µM for the first, 54 to 430 µM for the second.

Biological target: integrins on WM-115 cells (mainly integrin α5β1, αVβ3, and αVβ5)
Test: competitive cell adhesion assay
Remark: another data set of the same source

Binder B6 has an IC50 of 0.88 µM.

Biological target: integrins on WM-115 cells (mainly integrin α5β1, αVβ3, and αVβ5)
Test: competitive cell adhesion assay
Remark: another data set of the same source

B1 and B2 cannot be ordered by IC50: greater than 1000 µM for the first, greater than 1000 µM for the second.

B3 and ANFEANELFFISEDV [linear peptide 6 (…)] cannot be ordered by IC50: greater than 1000 µM for the first, greater than 1000 µM for the second.

Going from B4 to B6, the IC50 falls from greater than 1000 µM to 2.39 µM. The second is the more potent here.

Binder B5 has an IC50 greater than 1000 µM.

Biological target: integrins on WM-115 cells (mainly integrin α5β1, αVβ3, and αVβ5)
Test: competitive cell adhesion assay
Remark: another data set of the same source

In the case of B6, the IC50 is reported as 1.65 µM.

Biological target: integrins on WM-115 cells (mainly integrin α5β1, αVβ3, and αVβ5)
Test: competitive cell adhesion assay
Remark: another data set of the same source

B6 gave an IC50 of 0.67 µM.
